These results are taken from patent US20240083958A1, “G PROTEIN PEPTIDOMIMETICS” (VRIJE UNIVERSITEIT BRUSSEL, priority 2020, published 2024).

Where two headings read alike, the source gives them in different places. Bridge positions count the residues as written; N and C are the ends. Square brackets hold non-standard residues; d marks the D form. Primed or numbered codes have the meaning given here. Triazole bridges read from a SMILES are 1,4-linked. Peptide text beside a SMILES is read from it. ξ: configuration not given here. Pra″ = alkyne-bearing residue joined to Azk by a CuAAC triazole staple; Azk = residue with azidated side chain, clicked to Pra; Pra′ = residue with alkynyl side chain, clicked to Azk; Lys(N3) = [N-]=[N+]=NCCCC[C@H](N)C(=O)O; Cha = N[C@@H](CC1CCCCC1)C(=O)O; Ile(3ξ) = CCC(C)[C@H](N)C(=O)O; S5 = C=CCCC[C@](C)(N)C(=O)O; Pra = C#CC[C@H](N)C(=O)O

The target of assay [1] is T1, human β2AR (Homo sapiens, UniProt P07550, N187E).
T1 construct: made in house; host or cells: Sf9 insect cells (Bac-to-Bac baculovirus); membrane extracts
Nature of the assay: Radioligand binding assay (RLA) with human β2AR, 3H-dihydroalprenolol (DHA) as radioligand, isoproterenol (agonist) as cold competitor, in presence and absence of the peptidomimetic. On the set-up: key to Shift: ratio IC50 basal (no peptide) / IC50 with peptidomimetic. How it is done:
β2AR365N constructs were expressed in Sf9 insect cells, using the Bac-to-Bac® Baculovirus Expression System. The membrane extracts were prepared from cells that expressed β2AR. Subsequently, the cell pellet was resuspended in a buffer (1 ml buffer/2×1E7 cells) containing 75 mM Tris pH 7.4, 12.5 mM MgCl2, 1 mM EDTA, Leupeptin and PMSF as protease inhibitors. Afterwards the cells were vortexed and homogenized in ice using a small volume Ultraturrax (6×10 sec). The cells were then centrifuged for 15 min at 16000 rcf, in a pre-cooled centrifuge (4° C.) and resuspended in the previous buffer containing 10% sucrose. Finally, the membranes were again homogenized in ice with the small volume Ultraturrax (3×10 sec). The protein concentration in the membrane fragments was determined using a Pierce BCA Protein Assay Kit and the protein concentration was extrapolated from the Bovine Serum Albumine standard curve.
To perform the radioligand competition binding assays, 96-well plates were used. For the assays on β2AR, the membrane extracts as well as the peptides were prepared in a binding buffer (75 mM Tris pH 7.4, 12.5 mM MgCl2, 1 mM EDTA, 0.2% BSA). The ligand (isoproterenol) and radioligand ([^3H]-dihydroalprenolol) were dissolved in ligand buffer (75 mM Tris pH 7.4, 12.5 mM MgCl2, 1 mM EDTA, 0.2% BSA and 0.1% ascorbic acid), at 1 mM and 2 nM, respectively. A ten-fold dilution series of the ligand was prepared to obtain a dose response curve. For each reaction 100 μl membrane extract, 50 μl ligand, 50 μl peptide or binding buffer containing 1% DMSO and 50 μl of radioligand was added to the V-bottom storage plate, with a total volume of 250 μl per well. Afterwards, the plates were incubated at room temperature for 2 h on a plate shaker (150 rpm). The samples were harvested into filter plates and washed with ice cold washing buffer (75 mM Tris pH 7,4) using the 96-well harvester. The plates were dried for 1 h at 50° C. and then sealed to allow the addition of 30 μl scintillation liquid to each well. Finally, the top of each plate was sealed and the plates were placed in a Wallac MICROBETA® Trilux scintillation counter and incubated for 30 min in the dark.
After the Microbeta scintillation counter, the experimental data was further analyzed using Graphpad Prism 6.0. After normalization of the raw data, a nonlinear regression was used to fit the data in a one-site binding model, with the total binding set as 100% and the non-specific binding between 0 and 5%. The IC50 values, obtained from the competition curves, were used to determine the shift for each peptide, which is the ratio of IC50 of the agonist test compound on the basal conformation (e.g. IC50 β2AR with no peptidomimetic) versus the active conformation (e.g. IC50 β2AR+peptidomimetic) of the receptor. For certain peptide analogues, a biphasic binding curve was observed and therefore fitted by a two-site model (nonlinear regression), resulting in two IC50 values (IC50Hi and IC50Lo) and a FractionHi, the fraction of receptors in the active state.
Synthesised peptidomimetics were evaluated using a radioligand binding assay (RLA) with a human β2AR, using ^3H-dihydroalprenolol (DHA) as the radioligand and increasing concentrations of isoproterenol (agonist) as cold competitor. In particular, the pharmacological stabilization of the receptor in the active conformation was evaluated by performing the radioligand displacement assay (RLA) in the presence and absence of the peptidomimetics. This validated assay quantifies the pharmacological stabilization of the receptor in the active conformation by comparing the affinities of an agonist for the basal versus the active GPCR conformer (Pardon et al. (2018) Angewandte Chemie International Edition 57, 5292-5295). During the assay, the binding affinity of an orthosteric agonist for the receptor, in particular isoproterenol for human β2AR, in presence and absence of the allosteric peptidomimetic was determined. […]

In assay [2] the target is T2, human β2AR (human, UniProt P07550 2-365). The assay can be described thus: cell-based or functional assay.
Assay [3] has as its target T2, human β2AR. Nature of the assay: cell-based or functional assay. This is another data set of the same source.
Assay [4] deals with T2, human β2AR. Nature of the assay: cell-based or functional assay. The source holds these as a separate data set.
In assay [5] the target is T2, human β2AR. Nature of the assay: cell-based or functional assay. This is another data set of the same source.
The target in assay [6] is T2, human β2AR. The assay can be described thus: cell-based or functional assay. This is another data set of the same source.
The target of assay [7] is T2, human β2AR. Nature of the assay: cell-based or functional assay. This is another data set of the same source.
Where [8] appears, read: Table 18a overview, averaged values of IC50 shift.
The mark [9] stands for this setting: Table 1, ratio IC50 β2AR alone / IC50 β2AR + peptidomimetic.
[10] abbreviates: Table 18b overview, averaged values of IC50 shift.

As for `CCC(C)[C@@H]1NC(=O)[C@@H](NC(=O)[C@H](CC(=O)O)NC(=O)[C@H](CCCNC(=N)N)NC(=O)[C@H](CS)NC(=O)[C@H](CC(=O)O)NC(=O)[C@H](CC(N)=O)NC(=O)[C@H](Cc2ccccc2)NC(C)=O)CCC(=O)NCCCC[C@@H](C(=O)N[C@@H](Cc2c[nH]cn2)C(=O)N[C@@H](CC(C)C)C(=O)N[C@@H](CCCNC(=N)N)C(=O)N[C@@H](CCC(N)=O)C(=O)N[C@@H](Cc2ccc(O)cc2)C(=O)N[C@@H](CCC(=O)O)C(=O)N[C@@H](CC(C)C)C(=O)N[C@@H](CC(C)C)C(=O)O)NC(=O)[C@H](CCCNC(=N)N)NC(=O)[C@H](CCC(N)=O)NC1=O` (some centres unmarked) [compound 5, Ac-FNDCRD[EIQRK]HLRQYELL-OH] (HELM PEPTIDE1{[ac].F.N.D.C.R.D.E.[CCC(C)[C@H](N[*:1])C(=O)[*:2]].Q.R.K.H.L.R.Q.Y.E.L.L}$PEPTIDE1,PEPTIDE1,8:R3-12:R3$$$V2.0), the Shift on human β2AR [1] (Table 3, ratio IC50 β2AR alone / IC50 β2AR + peptidomimetic) worked out at 4; at human β2AR [1] (setting [8]), 4.

As for `CCC(C)[C@@H]1NC(=O)[C@@](C)(NC(=O)[C@H](CC(=O)O)NC(=O)[C@H](CCCNC(=N)N)NC(=O)[C@H](CS)NC(=O)[C@H](CC(=O)O)NC(=O)[C@H](CC(N)=O)NC(=O)[C@H](Cc2ccccc2)NC(C)=O)CCC/C=C\CCC[C@@](C)(C(=O)N[C@@H](Cc2c[nH]cn2)C(=O)N[C@@H](CC(C)C)C(=O)N[C@@H](CCCNC(=N)N)C(=O)N[C@@H](CCC(N)=O)C(=O)N[C@@H](Cc2ccc(O)cc2)C(=O)N[C@@H](CCC(=O)O)C(=O)N[C@@H](CC(C)C)C(=O)N[C@@H](CC(C)C)C(=O)O)NC(=O)[C@H](CCCNC(=N)N)NC(=O)[C@H](CCC(N)=O)NC1=O` (some centres unmarked) [compound 8, Ac-FNDCRD[S5IQRS5]HLRQYELL-OH] (Ac-FNDCRD[S5][Ile(3ξ)]QR[S5]HLRQYELL-OH; staple (Z) 7-11), the Shift at human β2AR [1] (Table 4, ratio IC50 β2AR alone / IC50 β2AR + peptidomimetic) amounted to 2; on human β2AR [1] (setting [8]) it was 3.

For “Ac-FN[PraCRDAzk]IQRMHLRQYELL-OH (Ac-FN[Pra′]CRD[Azk]IQRMHLRQYELL-OH; triazole 3-7) [compound 12]”, the Shift with human β2AR [1] (Table 8, ratio IC50 β2AR alone / IC50 β2AR + modulator) came out at 37.

Consider “QRMHLRQYELL [compound 21, Ac-QRMHLRQYELL-OH]”, for which the Shift at human β2AR [1] (setting [9]) and at human β2AR [1] (setting [10]) was 1 throughout.

On to “RDIIQRMHLRQYELL [compound 16, Ac-RDIIQRMHLRQYELL-OH]”, for which the Shift on human β2AR [1] (setting [9]) and at human β2AR [1] (setting [10]) was 1 throughout.

As for `CCC(C)[C@@H]1NC(=O)[C@@H](NC(=O)[C@H](CC(=O)O)NC(=O)[C@H](CCCNC(=N)N)NC(=O)[C@H](CS)NC(=O)[C@H](CC(=O)O)NC(=O)[C@H](CC(N)=O)NC(=O)[C@H](Cc2ccccc2)NC(C)=O)Cc2cn(nn2)CCCC[C@@H](C(=O)N[C@@H](Cc2c[nH]cn2)C(=O)N[C@@H](CC(C)C)C(=O)N[C@@H](CCCNC(=N)N)C(=O)N[C@@H](CCC(N)=O)C(=O)N[C@@H](Cc2ccc(O)cc2)C(=O)N[C@@H](CCC(=O)O)C(=O)N[C@@H](CC(C)C)C(=O)N[C@@H](CC(C)C)C(=O)O)NC(=O)[C@H](CCCNC(=N)N)NC(=O)[C@H](CCC(N)=O)NC1=O` (some centres unmarked) [compound 11, Ac-FNDCRD[PraIQRAzk]HLRQYELL-OH] (Ac-FNDCRD[Pra][Ile(3ξ)]QR[Lys(N3)]HLRQYELL-OH; triazole 7-11), the Shift is listed as 7 at human β2AR [1] (Table 5, ratio IC50 β2AR alone / IC50 β2AR + peptidomimetic) and 7 on human β2AR [1] (setting [8]).

On to Ac-KKFN[Pra]CRD[Lys(N3)]IQRMHLRQYE[Cha]L-OH (triazole 5-9) [compound 74], for which the “Shift (averaged)” value in the assay with human β2AR [2] stood at 350. In the assay with human β2AR [3], the “Fraction HI (%)” value was 89%; the “IC50 (nM) of isoproterenol, [3H]-DHA RLA, peptidomimetic present” value (shortened to “IC50 (nM) of isoproterenol, [3H]-DHA RLA”) amounted to 4.7 nM; the Shift turned out to be 350.

For Ac-FNDCRDIIQRMHLRQYEWL-OH [compound 69], in the assay with human β2AR [4], the “Fraction HI (%)” value is 51%; the “IC50 (nM) of isoproterenol, [3H]-DHA RLA” value amounted to 28.9 nM; the Shift was determined as 55. Moreover, in the assay with human β2AR [2], the “Shift (averaged)” value turned out to be 27.

As for Ac-FN[Pra′]CRD[Azk]IQRMHLRQYELL-OH [compound 22], in the assay with human β2AR [5], the “Shift (averaged)” value is 9.

For the molecule Ac-FNDCRDIIQRMHLRQYALL-OH [compound 77], in the assay with human β2AR [6], the “IC50 (nM) of isoproterenol, [3H]-DHA RLA” value came to 175 nM and the Shift was found to be 5. Further, the “Shift (averaged)” value in the assay with human β2AR [2] worked out at 5.

For the molecule Ac-KFN[Pra′]CRD[Azk]IQRMHLRQYELL-OH (triazole 4-8) [compound 41], in the assay with human β2AR [7], the “IC50 (nM) of isoproterenol, [3H]-DHA RLA” value turned out to be 26 nM and the Shift stood at 44. In the assay with human β2AR [2], the “Shift (averaged)” value came to 51.

Ac-FNDCRDIIQRMHLRQAELL-OH [compound 78]: in the assay with human β2AR [6], the “IC50 (nM) of isoproterenol, [3H]-DHA RLA” value turned out to be 616 nM and the Shift amounted to 1. The “Shift (averaged)” value in the assay with human β2AR [2] worked out at 1.

Take Ac-FNDCRDIIQRMHLRQYEAL-OH [compound 76]: in the assay with human β2AR [6], the “IC50 (nM) of isoproterenol, [3H]-DHA RLA” value stood at 1070 nM and the Shift came to 1. The “Shift (averaged)” value with human β2AR [2] amounted to 1.

In the case of Ac-KFN[Pra′]CRD[Azk]IQRMHLRQYE[Cha]L-OH (triazole 4-8) [compound 50], the “Shift (averaged)” value in the assay with human β2AR [2] is 373. For the same molecule, in the assay with human β2AR [3], the “Fraction HI (%)” value is 86%; the “IC50 (nM) of isoproterenol, [3H]-DHA RLA” value turned out to be 2.6 nM; the Shift was determined as 616.

As to Ac-KKKFN[Pra″]CRD[Lys(N3)]IQRMHLRQYEFL-OH (triazole 6-10) [compound 62], in the assay with human β2AR [4], the “Fraction HI (%)” value was found to be 91%; the “IC50 (nM) of isoproterenol, [3H]-DHA RLA” value was 17.1 nM; the Shift was 93. Besides, in the assay with human β2AR [2], the “Shift (averaged)” value was 87.

For the molecule Ac-FNDCRDIIQRMHLRQYEFL-OH [compound 68], in the assay with human β2AR [4], the “Fraction HI (%)” value came to 62%; the “IC50 (nM) of isoproterenol, [3H]-DHA RLA” value amounted to 54.6 nM; the Shift is 29. Besides, the “Shift (averaged)” value with human β2AR [2] is 35.

Consider Ac-FNDCRDIIQRMHLRQYELA-OH [compound 79], for which, in the assay with human β2AR [6], the “IC50 (nM) of isoproterenol, [3H]-DHA RLA” value was determined as 849 nM and the Shift was 1. In addition, the “Shift (averaged)” value in the assay with human β2AR [2] worked out at 1.

Ac-RFN[Pra′]CRD[Azk]IQRMHLRQYELL-OH (triazole 4-8) [compound 40]: in the assay with human β2AR [7], the “IC50 (nM) of isoproterenol, [3H]-DHA RLA” value was 31.3 nM and the Shift is 37. The “Shift (averaged)” value in the assay with human β2AR [2] was determined as 37.
